# Experimental data: IntAct's records for PubMed 18033301
# B1: Clathrin interactor 1 (Homo sapiens), Q14677 (parent)
# chain: MLNMWKVRELVDKATNVVMNYSEIESKVREATNDDPWGPSGQLMGEIAKATFMYEQFPELMNMLWSRMLKDNKKNWRRVYKSLLLLAYLIRNGSERVVTSAREHIYDLRSLENYHFVDEHGKDQGINIRQKVKELVEFAQDDDRLREERKKAKKNKDKYVGVSSDSVGGFRYSERYDPEPKSKWDEEWDKNKSAFPFSDKLGELSDKIGSTIDDTISKFRRKDREDSPERCSDSDEEKKARRGRSPKGEFKDEEETVTTKHIHITQATETTTTRHKRTANPSKTIDLGAAAHYTGDKASPDQNASTHTPQSSVKTSVPSSKSSGDLVDLFDGTSQSTGGSADLFGGFADFGSAAASGSFPSQVTATSGNGDFGDWSAFNQAPSGPVASSGEFFGSASQPAVELVSGSQSALGPPPAASNSSDLFDLMGSSQATMTSSQSMNFSMMSTNTVGLGLPMSRSQNTDMVQKSVSKTLPSTWSDPSVNISLDNLLPGMQPSKPQQPSLNTMIQQQNMQQPMNVMTQSFGAVNLSSPSNMLPVRPQTNALIGGPMPMSMPNVMTGTMGMAPLGNTPMMNQSMMGMNMNIGMSAAGMGLTGTMGMGMPNIAMTSGTVQPKQDAFANFANFSK
# partner: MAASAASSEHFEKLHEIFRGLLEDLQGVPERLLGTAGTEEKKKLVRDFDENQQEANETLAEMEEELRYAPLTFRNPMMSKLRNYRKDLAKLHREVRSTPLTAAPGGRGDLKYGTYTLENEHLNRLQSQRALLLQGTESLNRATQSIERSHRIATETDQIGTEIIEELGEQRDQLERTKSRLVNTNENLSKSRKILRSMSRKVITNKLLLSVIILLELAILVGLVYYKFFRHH
# B2: Vesicle transport through interaction with t-SNAREs homolog 1B (Mus musculus), O88384 (parent)
# chain: B1 partner
# partner: B1 chain
# Variants of: B1
# Conditions: with vti1b_mouse Vti1b
row,Variant,effect of a mutation on the interaction
1,M53D;Y54D,disrupting interaction strength
2,F52D,disrupting interaction strength

# Results, then the variant that gave them:
row,effect of a mutation on the interaction,Variant
1,disrupting interaction strength,R146E
2,disrupting interaction strength,R96S

# Variants of: B2
# Conditions: with epn4_human CLINT1, Q14677
row,Variant,effect of a mutation on the interaction
1,E12A,disrupting interaction strength
2,E23R,disrupting interaction strength
3,S8W,disrupting interaction strength

# The remaining lines, values ahead:
row,effect of a mutation on the interaction,Variant
1,disrupting interaction strength,F73S
2,disrupting interaction strength,E65W
